Test results reported in paper PMC3400562 (2012).
Substitutions are numbered along the chain they refer to.

B1: 2F5 variant e4W (antibody, V domains shown)
VH: RITLKESGPPLVKPTQTLTLTCSFSGFSLSDFGVGVGWIRQPPGKALEWLAIIYSDDDKRYSPSLNTRLTITKDTSKNQVVLVMTRVSPVDTATYFCAHRRGPTTGGLFGWGGPIARGPVNAMDVWGQGITVTISS
VL: ALQLTQSPSSLSASVGDRITITCRASQGVTSALAWYRQKPGSPPQLLIYDASSLESGVPSRFSGSGSGTEFTLTISTLRPEDFATYYCQQLHFYPHTFGGGTRVDVR
B2: 2F5 variant r6W (antibody, V domains shown)
VH: RITLKESGPPLVKPTQTLTLTCSFSGFSLSDFGVGVGWIRQPPGKALEWLAIIYSDDDKRYSPSLNTRLTITKDTSKNQVVLVMTRVSPVDTATYFCAHRRGLFGWRGPVNAMDVWGQGITVTISS
VL: B1 VL
B3: 2F5 variant r4W (antibody, V domains shown)
VH: RITLKESGPPLVKPTQTLTLTCSFSGFSLSDFGVGVGWIRQPPGKALEWLAIIYSDDDKRYSPSLNTRLTITKDTSKNQVVLVMTRVSPVDTATYFCAHRRGPLFGWARGPVNAMDVWGQGITVTISS
VL: B1 VL
B4: 2F5 variant r4W2a (antibody, V domains shown)
VH: B3 VH with A108W
VL: B1 VL
B5: 2F5 variant r2W (antibody, V domains shown)
VH: RITLKESGPPLVKPTQTLTLTCSFSGFSLSDFGVGVGWIRQPPGKALEWLAIIYSDDDKRYSPSLNTRLTITKDTSKNQVVLVMTRVSPVDTATYFCAHRRGPTLFGWIARGPVNAMDVWGQGITVTISS
VL: B1 VL
B6: 2F5 variant r4WY2 (antibody, V domains shown)
VH: B3 VH with L104Y, A108Y
VL: B1 VL
B7: 2F5 variant e2W (antibody, V domains shown)
VH: RITLKESGPPLVKPTQTLTLTCSFSGFSLSDFGVGVGWIRQPPGKALEWLAIIYSDDDKRYSPSLNTRLTITKDTSKNQVVLVMTRVSPVDTATYFCAHRRGPTTGLFGWGPIARGPVNAMDVWGQGITVTISS
VL: B1 VL
B8: 2F5 variant r4WY (antibody, V domains shown)
VH: B3 VH with A108Y
VL: B1 VL
B9: 2F5 variant r4W2b (antibody, V domains shown)
VH: B3 VH with G106W
VL: B1 VL
B10: 2F5 variant r4W2c (antibody, V domains shown)
VH: B3 VH with L104W
VL: B1 VL
B11: 2F5 variant r4W3 (antibody, V domains shown)
VH: B3 VH with L104W, A108W
VL: B1 VL

Biological target: wt MPER peptide (HIV-1)

Binder	koff
B1	0.0105 s⁻¹
B2	0.0224 s⁻¹
B3	0.00681 s⁻¹
B4	0.00106 s⁻¹
B5	0.00435 s⁻¹
B6	0.00193 s⁻¹
B7	0.0105 s⁻¹
B8	0.00055 s⁻¹
B9	0.0034 s⁻¹
B10	0.00112 s⁻¹

Biological target: wt MPER peptide (HIV-1)
Remark: another data set of the same source

Binder	Kd
B1	145 nM
B2	353 nM
B3	79.6 nM
B4	2.57 nM
B5	29.5 nM
B6	5.49 nM
B7	131 nM
B8	2.77 nM
B9	3.94 nM
B10	5.12 nM

Biological target: wt MPER peptide (HIV-1)
Remark: another data set of the same source

Binder	koff
B11	0.00174 s⁻¹

Biological target: wt MPER peptide (HIV-1)
Remark: another data set of the same source

Binder	Kd
B11	2.2 nM
